Test results reported in US20180022822A1, “NOVEL ANTI-FIBROBLAST ACTIVATION PROTEIN (FAP) BINDING AGENTS AND USES THEREOF” (Mabimmune Diagnostics AG, priority 2016, published 2018).

Key:
[1] = target: T1, rhFAP and FAP homologues (DPP4, DPP8, DPP9, POP/PREP) (Homo sapiens, UniProt Q12884); test: inhibition assays on SB9 oligopeptidase family enzymes; assay type: biochemical; settings: 0-1000 nM antibody
T1 construct: purchased Sino Biologicals 10464-H07H
T1 sequence (Q12884 26-760 limits assumed): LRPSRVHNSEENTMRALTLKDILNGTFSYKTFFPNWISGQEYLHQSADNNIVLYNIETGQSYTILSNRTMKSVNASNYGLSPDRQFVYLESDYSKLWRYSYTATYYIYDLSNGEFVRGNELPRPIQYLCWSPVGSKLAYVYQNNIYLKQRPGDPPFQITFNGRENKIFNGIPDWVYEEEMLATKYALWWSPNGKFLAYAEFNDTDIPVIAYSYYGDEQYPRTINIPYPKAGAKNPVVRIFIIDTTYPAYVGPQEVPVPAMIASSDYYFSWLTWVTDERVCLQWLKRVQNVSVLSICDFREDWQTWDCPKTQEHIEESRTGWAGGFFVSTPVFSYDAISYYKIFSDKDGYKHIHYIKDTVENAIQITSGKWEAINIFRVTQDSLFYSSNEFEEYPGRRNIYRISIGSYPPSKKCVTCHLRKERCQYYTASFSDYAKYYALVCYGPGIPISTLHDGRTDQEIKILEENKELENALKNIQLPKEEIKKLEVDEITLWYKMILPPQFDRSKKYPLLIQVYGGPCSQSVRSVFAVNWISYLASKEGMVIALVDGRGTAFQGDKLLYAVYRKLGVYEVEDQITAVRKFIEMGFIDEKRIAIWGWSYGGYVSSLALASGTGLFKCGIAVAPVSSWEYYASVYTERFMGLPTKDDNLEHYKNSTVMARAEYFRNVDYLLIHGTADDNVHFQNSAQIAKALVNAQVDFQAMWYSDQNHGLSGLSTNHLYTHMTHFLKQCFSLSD
Protocol: To determine the inhibitory ability of the antibody a black 96 well plate was blocked for 1 h with blocking buffer. NI-206.82C2 was pipetted at concentrations of 1000, 50, 10, 3.03, 1.01, 0.031, 0.001, and 0 nM in PBS into the according wells. The enzymes were added at a concentration of 0.2 nM. Finally, fluorgenic substrates were then added to the well at a concentration equal to the Michaelis constant (Km) and the velocity of the substrate cleavage was quantified by fluorescence at 360 nm excitation and 460 nm emission. H-Gly-Pro-AMC (AAT Bioquest, 13450) was used for DPP4, DPP9, and DPP8. Z-Gly-Pro-AMC (BaChem, 11145) was used to evaluate the activity of POP/PREP. FAP activity was assessed using DQ-gelatin (Life Technologies, D12054) and cleavage quantified at 495 nm excitation and 515 nm emission.

[2] = target: T2, active recombinant mouse FAP (Mus musculus, UniProt P97321); test: DQ-gelatin cleavage inhibition, active recombinant mouse FAP; assay type: biochemical
T2 construct: expressed in a HEK293 cell line without the transmembrane and intracellular domains and an N-terminal 6× histidine tag; made in house; host or cells: HEK293
T2 sequence (P97321 26-761 limits assumed): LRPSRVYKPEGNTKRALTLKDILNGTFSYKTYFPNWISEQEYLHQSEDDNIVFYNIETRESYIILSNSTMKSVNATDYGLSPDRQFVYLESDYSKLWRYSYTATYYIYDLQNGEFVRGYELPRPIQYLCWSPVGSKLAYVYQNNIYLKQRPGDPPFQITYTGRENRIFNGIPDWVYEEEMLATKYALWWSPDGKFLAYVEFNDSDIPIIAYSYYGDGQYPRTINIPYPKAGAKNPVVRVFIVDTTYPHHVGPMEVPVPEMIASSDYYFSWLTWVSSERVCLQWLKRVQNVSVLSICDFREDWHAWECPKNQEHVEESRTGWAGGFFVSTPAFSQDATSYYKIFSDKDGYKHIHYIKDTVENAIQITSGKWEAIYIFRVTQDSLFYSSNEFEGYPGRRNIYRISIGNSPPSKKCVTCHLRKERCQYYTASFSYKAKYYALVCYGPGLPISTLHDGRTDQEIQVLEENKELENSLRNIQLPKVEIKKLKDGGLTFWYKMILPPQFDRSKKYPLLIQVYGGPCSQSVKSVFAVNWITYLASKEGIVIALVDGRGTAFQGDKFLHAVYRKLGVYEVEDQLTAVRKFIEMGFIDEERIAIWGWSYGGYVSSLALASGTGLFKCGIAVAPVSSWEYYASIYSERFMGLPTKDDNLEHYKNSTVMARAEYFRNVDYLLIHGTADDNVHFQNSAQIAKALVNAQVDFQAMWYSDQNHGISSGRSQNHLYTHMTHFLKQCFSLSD
Protocol: To determine the inhibitory ability of NI-206.82C2 against active recombinant murine FAP, recombinant murine FAP was expressed in a HEK293 cell line without the transmembrane and intracellular domains and an N-terminal 6× histidine tag. A 96-well ELISA plate was then coated with 50 uL of murine anti-His tag antibody at 6 μg/mL in PBS overnight at 4° C. The wells were then blocked with 60 μL of 2% BSA in PBS for 1 h at room temperature, and 50 μL of recombinant mouse FAP containing cell culture supernatant diluted 1:4 was added to the well and incubated overnight at 4C while gently shaking. Following three washing steps with PBS, 20 uL of sterile 12.5% BSA/PBS solution was added to all wells.

[3] = tested on: human invasive ductal carcinoma and invasive lobular carcinoma sections; test: confocal immunofluorescence on human carcinoma cryosections; settings: Cy3 labelled antibody
Protocol: NI-206.82C2 was labelled with Cyanine 3 for fluorescent imaging (Cy3 conjugation kit: Innova Biosciences, 340-0030) and antibody labelling was validated using a spectophotometer. Cryosections from human invasive ductal carcinoma tissues (FIG. 9, A) and invasive lobular carcinoma (FIG. 9, B) were fixed for 5 minutes in ice cold acetone and allowed to dry for 10 minutes before washing in PBS. The sections were then incubated for 1 hr at room temperature in 5% BSA in PBS. The tissue sections were then incubated with Cyanine 3 prelabelled antibodies overnight at 4° C., and then washed three times in PBS before incubation with DAPI at 0.5 μg/mL. Sections were then washed three additional times in PBS and mounted in Lisbeth's mounting medium before imaging on a SP8 confocal microscope (Leica Microsystems).

[4] = tested on: obstructive human coronary thrombi and aortic atherosclerotic plaque; test: confocal immunofluorescence on human coronary thrombi and aortic atherosclerotic plaque; settings: Cy3 labelled antibody
Protocol: NI-206.82C2 was labelled with Cyanine 3 for fluorescent imaging (Cy3 conjugation kit: Innova Biosciences, 340-0030) and antibody labelling was validated using a spectophotometer. Cryosections from myocardial infarction causing obstructive human coronary thrombi (FIG. 14, A) and human aortic atherosclerotic plaque (FIG. 14, B) were fixed for 5 minutes in ice cold acetone and allowed to dry for 10 minutes before washing in PBS. The sections were then incubated for 1 hr at room temperature in 5% BSA in PBS, and then incubated with Cyanine 3 labelled antibodies overnight at 4° C., before washing three times in PBS before incubation with DAPI at 0.5 μg/mL. Sections were then washed three additional times in PBS and mounted in Lisbeth's mounting medium before imaging on a SP8 confocal microscope (Leica Microsystems).

B1: NI-206.82C2: human-derived recombinant anti-FAP antibody; VH SEQ ID NO: 2 or 4 (PIMC), VL SEQ ID NO: 6 (antibody, V domains shown)
VH: QVQLQQSGPGLVKPSQTLSLTCAISGDSVSSNSVTWNWIRQSPSRGLEWLGRTYYRSKWYNDYAVSVKGRITINPDTSKNQFYLQLKSVTPEDAAVYYCARDSSILYGDYWGQGTLVTVSS
VL: QAVLTQPSSLSASPGASASLTCTLPSGINVGTYRIFWFQQKPGSPPQYLLSYKSDSDNHQGSGVPSRFSGSKDASANAGILLISGLQSEDEADYYCMIWHSSAWVFGGGTKLTVL
inhibition selectivity for rhFAP over FAP homologues [1]: selectively inhibits rhFAP, but not FAP homologues
potency for inhibiting active recombinant mouse FAP compared to Val-boro-Pro and F19 [2]: higher potency
binding to human invasive ductal and invasive lobular carcinoma sections [3]: specifically binds
binding to human coronary thrombi and aortic atherosclerotic plaque [4]: binds
